Measurements as given in patent US20250289871A1.

Columns and labels:
Test in all cases: cell-based or functional assay
[1] = biological target: SARS-CoV-2 BA.5 spike protein (authentic virus) (SARS-CoV-2) (UniProt P0DTC2)
[2] = biological target: SARS-CoV-2 BA.1 spike protein (authentic virus) (SARS-CoV-2) (UniProt P0DTC2)
[3] = biological target: SARS-CoV-2 BA.2 spike protein (authentic virus) (SARS-CoV-2) (UniProt P0DTC2)
[4] = biological target: SARS-CoV-2 BA.1.1 spike protein (authentic virus) (SARS-CoV-2) (UniProt P0DTC2)
[5] = biological target: SARS-CoV-2 BA.2.12.1 spike protein (authentic virus) (SARS-CoV-2) (UniProt P0DTC2)
[6] = biological target: SARS-CoV-2 Alpha spike protein (authentic virus) (SARS-CoV-2) (UniProt P0DTC2)

cilgavimab (AZD1061) (antibody) showed an Authentic Virus Neutralization IC50 [1] of 0.131 µg/mL, an Authentic Virus Neutralization IC50 [2] of 3.78 µg/mL and an Authentic Virus Neutralization IC50 [3] of 0.021 µg/mL. The Authentic Virus Neutralization IC50 [4] was over 10 µg/mL, the Authentic Virus Neutralization IC50 [5] was 0.029 µg/mL and the Authentic Virus Neutralization IC50 [6] was 0.006 µg/mL.
